Results as given in FireProtDB (doi:10.1021/bi00014a029).

Settings: Meleagris gallopavo, Thermal, Potassium phosphate/Potassium acetate 10 mM/10 mM/
[1] = pH 1.5, CD, reversible: yes (82%)
[2] = pH 1.99, DSC, reversible: yes (91%)
[3] = pH 2.1, CD, reversible: yes (89%)
[4] = pH 2.5, CD, reversible: yes (85%)
[5] = pH 2.52, DSC, reversible: yes (90%)
[6] = pH 2.56, DSC, reversible: yes (78%)
[7] = pH 3.46, DSC, reversible: yes (90%)
[8] = pH 3.48, DSC, reversible: yes (81%)
[9] = pH 3.94, DSC, reversible: yes (87%)
[10] = pH 4.51, DSC, reversible: yes (84%)
[11] = pH 4.96, DSC, reversible: yes (100%)

Ovomucoid wild type, P68390, sequence (P68390 whole entry): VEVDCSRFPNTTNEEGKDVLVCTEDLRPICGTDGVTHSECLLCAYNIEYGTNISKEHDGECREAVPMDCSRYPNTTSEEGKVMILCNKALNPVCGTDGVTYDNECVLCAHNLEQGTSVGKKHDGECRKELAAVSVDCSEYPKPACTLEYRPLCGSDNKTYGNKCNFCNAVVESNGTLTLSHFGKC

For Ovomucoid wild type, P68390, the Tm [1] was 60.5 °C, the “unfolding enthalpy (van 't Hoff)” value [1] was 40.9 kcal/mol and the Tm [2] was 63.1 °C. For the same substance, the “unfolding enthalpy (calorimetric)” value [2] was 44.2 kcal/mol, the “unfolding enthalpy (van 't Hoff)” value [2] was 44.6 kcal/mol and the Tm [3] was 62.7 °C. The “unfolding enthalpy (van 't Hoff)” value [3] was 42.8 kcal/mol, the Tm [4] was 66.2 °C and the “unfolding enthalpy (van 't Hoff)” value [4] was 43.7 kcal/mol. For the same substance, the Tm [5] was 68.5 °C, the “unfolding enthalpy (calorimetric)” value [5] was 47.7 kcal/mol and the “unfolding enthalpy (van 't Hoff)” value [5] was 49.2 kcal/mol. For the same substance, the Tm [6] was 65.7 °C, the “unfolding enthalpy (calorimetric)” value [6] was 45.4 kcal/mol and the “unfolding enthalpy (van 't Hoff)” value [6] was 45.4 kcal/mol. The Tm [7] was 78.7 °C, the “unfolding enthalpy (calorimetric)” value [7] was 48.1 kcal/mol and the “unfolding enthalpy (van 't Hoff)” value [7] was 49.6 kcal/mol. The Tm [8] was 78.7 °C, the “unfolding enthalpy (calorimetric)” value [8] was 50 kcal/mol and the “unfolding enthalpy (van 't Hoff)” value [8] was 51 kcal/mol. The Tm (pH 3.51, DSC) was 80.8 °C, the “unfolding enthalpy (calorimetric)” value (pH 3.51, DSC) was 55 kcal/mol and the “unfolding enthalpy (van 't Hoff)” value (pH 3.51, DSC) was 57.9 kcal/mol. The Tm [9] was 85.7 °C, the “unfolding enthalpy (calorimetric)” value [9] was 55.3 kcal/mol and the “unfolding enthalpy (van 't Hoff)” value [9] was 52.7 kcal/mol. The Tm [10] was 85.2 °C, the “unfolding enthalpy (calorimetric)” value [10] was 57.4 kcal/mol and the “unfolding enthalpy (van 't Hoff)” value [10] was 56.3 kcal/mol. The Tm [11] was 87.8 °C and the “unfolding enthalpy (calorimetric)” value [11] was 62.4 kcal/mol.
